Assay results taken from the supplement of paper PMC9170038.

Test system: MS2 coat protein
Test: apparent KD of MS2 coat protein; designed switch direction (-1 OFF switch, 1 ON switch): -1; higher = weaker reporter binding
How it was run: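 Transcription of designed RNA switches on Illumina chips was done by stalled E. coli RNA polymerase. SNAP-549-labelled MS2 coat protein was then titrated in doubling steps from 0.7 or 1.5 nM to 3 µM, with steps of 0.8–1.5 h at the lowest and 10–20 min at the highest concentration. The per-design median over clusters of curve-fitted normalised fluorescence is reported as apparent KD.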

[1] = input ligand: microRNA oligo, concentration not stated
[2] = Eterna round: R95, input ligand: microRNA oligo, concentration not stated
[3] = Eterna round: R95, input ligand: FMN 200 uM
[4] = Eterna round: R95, input ligand: none

Row | Sequence | apparent KD of MS2 coat protein [1] [nM] | apparent KD of MS2 coat protein (input ligand: FMN 200 uM) [nM] | apparent KD of MS2 coat protein (input ligand: none) [nM] | apparent KD of MS2 coat protein [2] [nM] | apparent KD of MS2 coat protein [3] [nM] | apparent KD of MS2 coat protein [4] [nM]
1 | UUGUUAUAUGUAGGAUAUGCAUAUUAUUAUUAUGCAGAAGGACAUGAGGAUCACCCAUGUGUAUUAUUAUUAUAUAUUAUAUAU [Title] (Eterna round: R96, puzzle: Exclusion NG 1) | 17.4 |  |  |  |  | 
2 | AGUAGGAGAGGAUAUACGAAGUCAAAAGACUUCGAUCCUCAACAUGAGGAUCACCCAUGUAGAAGGCUCCUACA [Omei Ex2 BD A1] (Eterna round: R97, puzzle: Exclusion 2) |  | 166 | 154 |  |  | 
3 | UUUUUUGUAGUGAGGAUAUCGUUGAGGAUGUGGAUCGAGAAGGCACAUGAGGAUCACCCAUGUUAGAUGUGGUU [JR_BMOE4_Sub083] (puzzle: Brourd's mod of Exclusion 4) |  |  |  | 173 |  | 
4 | UUGUGCACGCUGCGGUCCUACAUGAGGAUCACCCAUGUGGUCUGGUGGCGUGGGUCGCCGGACUUGGCUCGUCUUGA [salish99_S_TOV1_R5_027] (Eterna round: R97, puzzle: Sensor, turn-off variant 1) |  | 18.4 | 18.8 |  |  | 
5 | GGUACACAUGAGGAUCACCCAUGUCAGGAUAUCUGGAUACUCUUUAUUUUAGAUAUCCAGAGAAGGGACGUGCC [Ex1-3: 9Z] (puzzle: Exclusion 1) |  |  |  | 29.7 |  | 
6 | UACCUGAGGCAAAGCUUUAGGUAAACAUGAGGAUCACCCAUGUAGGAUAUGGUAGGCAAAGCUUACCAGAAGGACAUGUUAAUU [Mat - Exclusion NG 3 - Mod of JL - D34] (Eterna round: R96, puzzle: Exclusion NG 3) | 79.5 | 341 | 83 |  |  | 
7 | AGAAGUAGUAACCGAUCCUACAUGAGGAUCACCCAUGUAGCGAGACGUGCACGCGAAGCUCGUCAGACUACCAGAUG [salish99_TOv1_r3_025] (puzzle: Sensor v3, turn-off variant 1) |  |  |  | 139 | 138 | 159
8 | GCUGGGUCAGGAUAUACAAGAUCGAAAGAUCUGUGAAACGAACAUGAGGAUCACCCAUGUAGAAGGGACUGGGC [ChP 11-04-2015 #9] (puzzle: Exclusion 2) |  |  |  | 16.6 |  | 
9 | CUGGUCCGAGGAUAUAUUAAGUGAUACAUGAGGAUCACCCAUGUAAUUUAAUGGAAGUAAAUAGAAGGCGGACUAG [Mat - Exclusion 5 - JL mod - D50] (puzzle: Exclusion 5) |  |  |  | 53 | 79.8 | 80.5
10 | CAUACACAUGAGGAUCACCCAUGUGAGGAUAUUCGCGCGCGCGCCCGGGCGCGCGCGCGGAGAAGGCACGUGCG [My first try] (Eterna round: R97, puzzle: Exclusion 1) |  | 76.7 | 51.2 |  |  | 
11 | AAAUGGGCGUAGGAUAUGAGAUGGUCUAGCAGCUCAGAAGGACGCACAUGAGGAUCACCCAUGUGAUCGGACUA [Celebidi] (Eterna round: R96, puzzle: Exclusion 6) | 27.8 | 281 | 34.8 |  |  | 
12 | UAUAUGUCAGGAUAUCGAUUGGAACAGAAUUUAACAAUGGUCGAGAAGGGACAUGAGGAUCACCCAUGUUCAAC [JR_Ex4_Sub020] (Eterna round: R97, puzzle: Exclusion 4) |  | 27.3 | 21.9 |  |  | 
13 | UUAAUUAAUUAUAUAAGAUCACAUGAGGAUCACCCAUGUAUAUAGGAUAUCAGCUCGAUUAGAGCUGAGAAGGAUAUACAAUAU [ExNG3/3-B1] (Eterna round: R96, puzzle: Exclusion NG 3) | 138 | 172 | 147 |  |  | 
14 | CUGCUCCGUGUAGGAUAUGCAUACUCCCACUAUGCAGAAGGACAUGAGGAUCACCCAUGUAUGUUAUUAUCACGUGUAGCGUCC [Design 17] (Eterna round: R96, puzzle: Exclusion NG 1) | 14.2 | 21.1 | 21.4 |  |  | 
